{
  "source": "patent US10736941B2",
  "about": "“Cell membrane-permeating peptide” (NATIONAL UNIVERSITY CORPORATION KUMAMOTO UNIVERSITY, priority 2015, dated 2020)",
  "key": {"[1]": {"system": "Caco-2 cells", "assay": "Cell toxicity to Caco-2 cells (Cell Counting kit 8)", "format": "cell-based, human", "conditions": "Caco-2 cells treated for 24 hours, 10 μM", "protocol": "For cell toxicity, 100 μL of 0-10 μM DNP peptide was added to Caco-2 cells cultured in a 96-well plate, and the cell survival rates after 1, 6 and 24 hours were measured using Cell Counting kit 8 (DOJINDO Laboratories).\n(§1) Caco-2 cells were treated for 24 hours using the cyclic peptide DNP having highest permeability at a concentration of 10 μM, but weakening of cell toxicity and tight junction was not observed."}, "[2]": {"system": "Caco-2 cells", "assay": "Influence on tight junction of Caco-2 cells (TEER, Millicell ERS-2)", "format": "cell-based, human", "conditions": "Caco-2 cells treated for 24 hours, 10 μM", "protocol": "For the influence on tight junction, Caco-2 cells were cultured in Transwell, then, 2 mL of 0-10 μM peptide DNP was added at the apical (AP) side, and 1, 2, 3, 6, 12 and 24 hours after addition, the electric resistance value (TEER) was measured using Millicell ERS-2.\nas §1"}, "[3]": {"system": "Caco-2 cells", "assay": "Competitive inhibition of DNP-presenting phage permeation through Caco-2 cells by synthetic unlabeled DNP peptide", "format": "cell-based, human", "conditions": "unlabeled DNP 10 μM", "protocol": "The experiment of permeation using Caco-2 cells was conducted according to a report of Ohura et al. (J. Pharm. Sci. Vol 100, No. 9, 2011). Each phage stock was prepared by diluting with an HBSS buffer so as to give a concentration of 5×10^11 pfu/mL. Caco-2 cells placed in Transwell (manufactured by Coring) were cultured, and formation of sufficient tight junction was confirmed, then, Transwell was transferred to a new 6-well plate. To the apical (AP) side of the cell, 2 mL of the phage preparation liquid was added and incubated at 37° C. (this time point t=0 min). When reached each time point, Transwell was transferred to a new 6-well plate. The time point was 1, 3, 5, 10 and 30 min. The sample at the basal (BA) side at each time point was kept on ice. When reached 30 min, Transwell was transferred to a new 6-well plate, and the HBSS buffer at the AP side was aspirated, then, the cells were recovered into a centrifugal tube. The titre at the BA side and the titre in the supernatant at each time point were measured by qPCR. […]\nThe DNP-presenting phage permeating Caco-2 cells was measured in the presence or in the absence of the unlabeled DNP, in the same manner as in Example 1. […]"}, "[4]": {"system": "mouse small intestine closed loop", "assay": "Promotion of insulin absorption by co-administration of cyclic peptide, mouse small intestine closed loop, blood glucose level", "format": "in vivo", "conditions": "DNPGNET 5 mM co-administered with insulin 10 IU/kg into mouse small intestine loop, versus insulin alone, over 60 minutes", "protocol": "The influence on insulin absorption by co-administration of the cyclic peptide of the present invention was studied by measuring the blood glucose level.\nWe asked GenScript Japan Inc. to synthesize a cyclic peptide shown in FIG. 4B containing a sequence of DNPGNET (SEQ TD No: 5).\nA peptide was prepared by using 100 μL of a hot HBSS solution so that the concentration of insulin was 10 IU/kg and the concentration of DNPGNET was 5 mM and incubated at 37° C. for 1 hour, and the resultant was used in the co-administration group. For the insulin single administration group, a sample was prepared by using 100 μL of a hot HBSS solution so that the concentration of insulin was 10 IU/kg and incubated at 37° C. for 1 hour, and the resultant peptide was used. In the same manner as in Example 6, a mouse small intestine closed loop was produced, then, the DNPGNET+insulin solution or the insulin solution prepared previously was administered into the loop. The time of administration was 0 min, and the blood glucose level was measured over a time of 60 minutes by using ACCU-CHEK (registered trademark) Aviva Nano."}},
  "note": "Where no end group is shown, it is not given here.",
  "data": [
    {"substance": "DNPGNET (also: cyclic peptide, mode of cyclisation not given here)", "values": [
      {"measurement": "cell toxicity", "setting": "[1]", "result": "not observed"},
      {"measurement": "weakening of tight junction (TEER)", "setting": "[2]", "result": "not observed"},
      {"measurement": "competitive inhibition of DNP-presenting phage permeating Caco-2 cells", "setting": "[3]", "result": "competitive inhibition occurs"},
      {"measurement": "insulin absorption (blood glucose level)", "setting": "[4]", "result": "absorption of insulin was promoted"}
    ]}
  ]
}
